Holding throughout (test): cell_activity
For series [1], the system named is FucT2_T02 TALEN left monomer (synthetic (TAL effector-FokI-type nuclease)?).
For series [2], the system named is FucT1_T02 TALEN left monomer (synthetic (TAL effector-FokI-type nuclease)?).
The subject of series [3] is XylT_T04 TALEN left monomer (synthetic (TAL effector-FokI-type nuclease)?). Conditions: pair activity on full site SEQ 65, yeast 37C; 0.9 at 30C; protoplast NHEJ 73.8% XylT1, 63.9% XylT2 (Table 3).
Series [4] deals with FucT1_T01 TALEN left monomer (synthetic (TAL effector-FokI-type nuclease)?). Conditions: pair activity on full site SEQ 66, yeast 37C; 0.6 at 30C.
In series [5] the test system is FucT1_T02/FucT2_T02 TALEN right monomer (synthetic (TAL effector-FokI-type nuclease)?). Conditions: pair activity with either left monomer (SEQ 68 or 69), yeast 37C; 0.7 at 30C.
Series [6] concerns XylT_T03 TALEN right monomer (synthetic (TAL effector-FokI-type nuclease)?). Conditions: pair activity on full site SEQ 64, yeast 37C; 0.7 at 30C; protoplast NHEJ 34.4% XylT1, 28.2% XylT2 (Table 3).
Series [7] deals with FucT2_T01 TALEN right monomer (synthetic (TAL effector-FokI-type nuclease)?). Conditions: pair activity on full site SEQ 67, yeast 37C; 0.8 at 30C.
Series [8] deals with FucT1_T04/FucT2_T04 TALEN right monomer (synthetic (TAL effector-FokI-type nuclease)?). Conditions: pair activity on SEQ 70 and SEQ 71, yeast 37C; 0.5 at 30C.
In series [9] the test system is XylT_T03 TALEN left monomer (synthetic (TAL effector-FokI-type nuclease)?). Conditions: pair activity on full site SEQ 64, yeast 37C; 0.7 at 30C; protoplast NHEJ 34.4% XylT1, 28.2% XylT2 (Table 3).
Series [10] deals with FucT1_T01 TALEN right monomer (synthetic (TAL effector-FokI-type nuclease)?). Conditions: pair activity on full site SEQ 66, yeast 37C; 0.6 at 30C.
In series [11] the test system is FucT2_T01 TALEN left monomer (synthetic (TAL effector-FokI-type nuclease)?). Conditions: pair activity on full site SEQ 67, yeast 37C; 0.8 at 30C.
Series [12] has as its system FucT1_T04/FucT2_T04 TALEN left monomer (synthetic (TAL effector-FokI-type nuclease)?). Conditions: pair activity on SEQ 70 and SEQ 71, yeast 37C; 0.5 at 30C.

For “TTCAAACGCACCCAATA (double strand) [FucT1_T02 target 1 (SEQ 57)]”, the activity in [1] (FucT2_T02 pair on endogenous FucT1 (1-bp mismatch in left site), N. benthamiana protoplasts, control 0.79%) came out at 46.5 % NHEJ. The activity (relative to I-SceI) in [2] (pair activity on full site SEQ 68, yeast 37C, 0.7 at 30C, protoplast NHEJ 39.2% FucT1 (Table 3)) is 0.9.
Consider “TCTCTTCGCTCTCAACT (double strand) [XylT_T04 target 1 (SEQ 51)]”, for which, in series [3], the activity (relative to I-SceI) worked out at 0.9.
In series [4], “TGAGATCGGCGTCAAAT (double strand) [FucT1_T01 target 1 (SEQ 53)]” had an activity (relative to I-SceI) of 0.8.
For the sequence “CTCTGTTCGTTGCCCTA (double strand) [FucT_T02 target 2 (SEQ 58, printed as top strand)]”, in [5], the activity (relative to I-SceI) came out at 0.9.
For “ATCACTCTCTATCTCTA (double strand) [XylT_T03 target 2 (SEQ 50, printed as top strand)]”, the activity (relative to I-SceI) in [6] came out at 0.9.
Sequence “GATAAACAATGGCGCAA (double strand) [FucT2_T01 target 2 (SEQ 56, printed as top strand)]” displayed an activity (relative to I-SceI) in [7] of 0.9.
In series [8], “TTTCTGGTTCGACTCGA (double strand) [FucT_T04 target 2 (SEQ 63, printed as top strand)]” showed an activity (relative to I-SceI) of 0.6.
Consider “TTCTTGTTTCTCTCTTC (double strand) [XylT_T03 target 1 (SEQ 49)]”, for which the activity (relative to I-SceI) in series [9] is 0.9.
“AATAAGCAATGGCGCAA (double strand) [FucT1_T01 target 2 (SEQ 54, printed as top strand)]” displayed an activity (relative to I-SceI) in series [10] of 0.8.
Turning to “TGAGATCGTCGTCAAAT (double strand) [FucT2_T01 target 1 (SEQ 55)]”, the activity (relative to I-SceI) in [11] worked out at 0.9.
Sequence “TTGCCTCTGTTCGTTGC (double strand) [FucT_T04 target 1 (SEQ 62)]” yielded an activity (relative to I-SceI) in [12] of 0.6.
Regarding “TTCAAACGCACCCGATA (double strand) [FucT2_T02 target 1 (SEQ 59)]”, the activity (relative to I-SceI) in [1] (pair activity on full site SEQ 69, yeast 37C, 0.7 at 30C, protoplast NHEJ 45.0% FucT2 (Table 3)) amounted to 0.9. The sequence further yielded an activity in [2] (FucT1_T02 pair on endogenous FucT2 (1-bp mismatch in left site), N. benthamiana protoplasts, control 0.14%) of 24.7 % NHEJ.

Source of the values: patent publication US20150272076.
